One substance from patent publication US20070292907 can be followed below.

This series relates to bovine 19S complex (PA700).

In the case of “USP14-ΔUBL (91-494) (purified recombinant, activation assay)”, the “activity toward UbVS (anti-ubiquitin immunoblot)” value was “showed extremely low activity toward UbYS, both in the absence and presence of the 19S regulatory particle”.
